In paper PMC8632965 (2021):

B1: extracellular portion of CD98 (212-630 of CD98hc) (domain or fragment)
chain: ELPAQKWWHTGALYRIGDLQAFQGHGAGNLAGLKGRLDYLSSLKVKGLVLGPIHKNQKDDVAQTDLLQIDPNFGSKEDFDSLLQSAKKKSIRVILDLTPNYRGENSWFSTQVDTVATKVKDALEFWLQAGVDGFQVRDIENLKDASSFLAEWQNITKGFSEDRLLIAGTNSSDLQQILSLLESNKDLLLTSSYLSDSGSTGEHTKSLVTQYLNATGNRWCSWSLSQARLLTSFLPAQLLRLYQLMLFTLPGTPVFSYGDEIGLDAAALPGQPMEAPVMLWDESSFPDIPGAVSANMTVKGQSEDPGSLLSLFRRLSDQRSKERSLLHGDFHAFSAGPGLFSYIRHWDQNERFLVVLNFGDVGLSAGLQASDLPASASLPAKADLLLSTQPGREEGSPLELERLKLEPHEGLLLRFPYAA
B2: extracellular portion of CD147 (ECD), amino acids 22–205 (domain or fragment)
chain: AAGTVFTTVEDLGSKILLTCSLNDSATEVTGHRWLKGGVVLKEDALPGQKTEFKVDSDDQWGEYSCVFLPEPMGTANIQLHGPPRVKAVKSSEHINEGETAMLVCKSESVPPVTDWAWYKITDSEDKALMNGSESRFFVSSSQGRSELHIENLNMEADPGQYRCNGTSSKGSDQAIITLRVRSH

How the values were obtained:
[1] = target: domain 1 of CD147 with the K63A mutation (human, UniProt P35613-2 22-205, K63A); experiment: SPR
[2] = target: B1; experiment: SPR
caveolin-1 protein [3] = target: T1, caveolin-1 protein (UniProt Q03135 1-178); experiment: SPR
T1 chain: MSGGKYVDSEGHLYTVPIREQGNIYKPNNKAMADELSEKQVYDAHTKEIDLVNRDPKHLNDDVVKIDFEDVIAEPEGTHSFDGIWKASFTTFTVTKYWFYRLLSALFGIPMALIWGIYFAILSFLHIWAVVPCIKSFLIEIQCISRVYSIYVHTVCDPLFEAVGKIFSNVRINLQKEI

caveolin-1 protein [4] = target: T1, caveolin-1 protein; experiment: SPR; in the presence of 5A12 antibody

Row | Binder | Kd [1] | Kd [2] | Kd (caveolin-1 protein [3]) | Kd (caveolin-1 protein [4])
1 | B1 | 7490 nM | – | – | –
2 | B2 | – | 818 nM | 35.7 nM | 14.9 nM
